Data: US20250276080A1 (Amgen, published 2025)
Where no end group is shown, it is not given here. [ ]: non-standard residue; d: D form. Aib = CC(C)(N)C(=O)O

What was measured:
Test in all cases: cell-based or functional assay
[1] = target: human glucagon-like peptide-1 receptor (human, UniProt P43220 24-463)
[2] = target: human glucagon receptor (human, UniProt P47871 26-477)
Target sequence in this assay (P47871 26-477): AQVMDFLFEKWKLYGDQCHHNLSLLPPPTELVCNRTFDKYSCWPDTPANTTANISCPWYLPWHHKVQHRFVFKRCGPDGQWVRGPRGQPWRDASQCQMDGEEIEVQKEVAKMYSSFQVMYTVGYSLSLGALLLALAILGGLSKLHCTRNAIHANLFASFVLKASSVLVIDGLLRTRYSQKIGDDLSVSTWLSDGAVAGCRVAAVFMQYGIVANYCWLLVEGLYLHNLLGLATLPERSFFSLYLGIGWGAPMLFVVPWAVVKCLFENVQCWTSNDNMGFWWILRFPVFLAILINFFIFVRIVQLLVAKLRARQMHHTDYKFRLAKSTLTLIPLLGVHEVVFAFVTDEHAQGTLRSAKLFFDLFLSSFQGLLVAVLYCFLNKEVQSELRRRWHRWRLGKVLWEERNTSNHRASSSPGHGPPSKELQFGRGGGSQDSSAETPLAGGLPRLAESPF

[3] = target: human glucagon receptor (human, UniProt P47871 26-477); remark: listed apart in the source
Target sequence in this assay (P47871 26-477): as above

[4] = target: human GLP-1 receptor (human, UniProt P43220 24-463)

B1: Conjugate 25435: Fc SEFL2 T487C-15997 (other)
chain 1: DKTHTCPPCPAPELLGGPSVFLFPPKPKDTLMISRTPEVTCVVVDVSHEDPEVKFNWYVDGVEVHNAKTKPCEEQYGSTYRCVSVLTVLHQDWLNGKEYKCKVSNKALPAPIEKTISKAKGQPREPQVYTLPPSREEMCKNQVSLTCLVKGFYPSDIAVEWESNGQPENNYKTTPPVLDSDGSFFLYSKLTVDKSRWQQGNVFSCSVMHEALHNHYTQKSLSLSPGK
peptide: H[dS]QGTFTSDYSKYLD[Aib]RRAQDFVQWLLKT
chain 2: Ac-GSPAPAPAPAPAPAPAPAPAPASGG
modifications: not fully specified; also: thioether at chain A 139 to a chain's N-terminus via acetyl, bond at chain B 28 to a chain's C-terminus
hGLP-1R EC50 (pM) [1]: 9770 pM | hGCGR EC50 (pM) [2]: 9.1 pM

B2: Conjugate 40741: aGIPR 5G12 SEFL2 E384C-39903 (other)
heavy: QVQLVESGGGVVQPGRSLRLSCTASGFTFSSYGIHWVRQAPGKGLEWVAVIWYDGSNKFHADSVKGRFTISRDNSKNTLYLQMNSLRAEDSAMYFCARGKVAGMPEAFEIWGQGTKVTVSSASTKGPSVFPLAPSSKSTSGGTAALGCLVKDYFPEPVTVSWNSGALTSGVHTFPAVLQSSGLYSLSSVVTVPSSSLGTQTYICNVNHKPSNTKVDKKVEPKSCDKTHTCPPCPAPELLGGPSVFLFPPKPKDTLMISRTPEVTCVVVDVSHEDPCVKFNWYVDGVEVHNAKTKPCEEQYGSTYRCVSVLTVLHQDWLNGKEYKCKVSNKALPAPIEKTISKAKGQPREPQVYTLPPSREEMTKNQVSLTCLVKGFYPSDIAVEWESNGQPENNYKTTPPVLDSDGSFFLYSKLTVDKSRWQQGNVFSCSVMHEALHNHYTQKSLSLSPGK
light: DIQLTQSPSSLSASVGDRVTITCRASQTISRFLNWYQQKPGKAPELLIYVASSLQSGVPSRFSGSGSGTDFTLTISSLQPEDFATYYCQQSYSTLISFGQGTKLEITRTVAAPSVFIFPPSDEQLKSGTASVVCLLNNFYPREAKVQWKVDNALQSGNSQESVTEQDSKDSTYSLSSTLTLSKADYEKHKVYACEVTHQGLSSPVTKSFNRGEC
peptide: HSQGTFTSDYSKYLDQRRAQDFVQWLLKT
chain: GSPAPAPAPAPAPAPAPAPAPASGG
modifications: N-term acetyl-thioether to Cys; d-Ser2; K28 eps-NH linked to linker C-term; C276 conjugated to linker
hGLP-1R EC50 (pM) [1]: 8020 pM | hGCGR EC50 (pM) [2]: 40.9 pM

B3: Conjugate 88013: aGIPR 5G12 SEFL2 E384C-87021 (other)
heavy: QVQLVESGGGVVQPGRSLRLSCTASGFTFSSYGIHWVRQAPGKGLEWVAVIWYDGSNKFHADSVKGRFTISRDNSKNTLYLQMNSLRAEDSAMYFCARGKVAGMPEAFEIWGQGTKVTVSSASTKGPSVFPLAPSSKSTSGGTAALGCLVKDYFPEPVTVSWNSGALTSGVHTFPAVLQSSGLYSLSSVVTVPSSSLGTQTYICNVNHKPSNTKVDKKVEPKSCDKTHTCPPCPAPELLGGPSVFLFPPKPKDTLMISRTPEVTCVVVDVSHEDPCVKFNWYVDGVEVHNAKTKPCEEQYGSTYRCVSVLTVLHQDWLNGKEYKCKVSNKALPAPIEKTISKAKGQPREPQVYTLPPSREEMTKNQVSLTCLVKGFYPSDIAVEWESNGQPENNYKTTPPVLDSDGSFFLYSKLTVDKSRWQQGNVFSCSVMHEALHNHYTQKSLSLSPGK
light: DIQLTQSPSSLSASVGDRVTITCRASQTISRFLNWYQQKPGKAPELLIYVASSLQSGVPSRFSGSGSGTDFTLTISSLQPEDFATYYCQQSYSTLISFGQGTKLEITRTVAAPSVFIFPPSDEQLKSGTASVVCLLNNFYPREAKVQWKVDNALQSGNSQESVTEQDSKDSTYSLSSTLTLSKADYEKHKVYACEVTHQGLSSPVTKSFNRGEC
peptide: HSQGTFTSDYSKYLDAKRAQEFVEWLLKS
chain: GGGGSGGGGSPAPAPAPAPAPASGG
modifications: N-terminus conjugated to heavy-chain Cys; K28 side chain amide-linked to linker C-terminus; C276 conjugated to linker
hGCGR EC50 (pM) [3]: 41.3 pM

B4: Conjugate 91659: aGIPR 5G12 SEFL2 E384C-91255 (other)
heavy: QVQLVESGGGVVQPGRSLRLSCTASGFTFSSYGIHWVRQAPGKGLEWVAVIWYDGSNKFHADSVKGRFTISRDNSKNTLYLQMNSLRAEDSAMYFCARGKVAGMPEAFEIWGQGTKVTVSSASTKGPSVFPLAPSSKSTSGGTAALGCLVKDYFPEPVTVSWNSGALTSGVHTFPAVLQSSGLYSLSSVVTVPSSSLGTQTYICNVNHKPSNTKVDKKVEPKSCDKTHTCPPCPAPELLGGPSVFLFPPKPKDTLMISRTPEVTCVVVDVSHEDPCVKFNWYVDGVEVHNAKTKPCEEQYGSTYRCVSVLTVLHQDWLNGKEYKCKVSNKALPAPIEKTISKAKGQPREPQVYTLPPSREEMTKNQVSLTCLVKGFYPSDIAVEWESNGQPENNYKTTPPVLDSDGSFFLYSKLTVDKSRWQQGNVFSCSVMHEALHNHYTQKSLSLSPGK
light: DIQLTQSPSSLSASVGDRVTITCRASQTISRFLNWYQQKPGKAPELLIYVASSLQSGVPSRFSGSGSGTDFTLTISSLQPEDFATYYCQQSYSTLISFGQGTKLEITRTVAAPSVFIFPPSDEQLKSGTASVVCLLNNFYPREAKVQWKVDNALQSGNSQESVTEQDSKDSTYSLSSTLTLSKADYEKHKVYACEVTHQGLSSPVTKSFNRGEC
peptide: HSQGTFTSDYSKYLDEKRAQEFVEWLLKS
chain: GGGGSGGGGSPAPAPAPAPAPASGG
modifications: N-terminus conjugated to heavy-chain Cys; d-Ser2; K28 side chain amide-linked to linker C-terminus; C276 conjugated to linker
hGLP-1R EC50 (pM) [4]: 6750 pM | hGCGR EC50 (pM) [3]: 152 pM

B5: Conjugate 92868: aGIPR 5G12 SEFL2 E384C-92840 (other)
heavy: QVQLVESGGGVVQPGRSLRLSCTASGFTFSSYGIHWVRQAPGKGLEWVAVIWYDGSNKFHADSVKGRFTISRDNSKNTLYLQMNSLRAEDSAMYFCARGKVAGMPEAFEIWGQGTKVTVSSASTKGPSVFPLAPSSKSTSGGTAALGCLVKDYFPEPVTVSWNSGALTSGVHTFPAVLQSSGLYSLSSVVTVPSSSLGTQTYICNVNHKPSNTKVDKKVEPKSCDKTHTCPPCPAPELLGGPSVFLFPPKPKDTLMISRTPEVTCVVVDVSHEDPCVKFNWYVDGVEVHNAKTKPCEEQYGSTYRCVSVLTVLHQDWLNGKEYKCKVSNKALPAPIEKTISKAKGQPREPQVYTLPPSREEMTKNQVSLTCLVKGFYPSDIAVEWESNGQPENNYKTTPPVLDSDGSFFLYSKLTVDKSRWQQGNVFSCSVMHEALHNHYTQKSLSLSPGK
light: DIQLTQSPSSLSASVGDRVTITCRASQTISRFLNWYQQKPGKAPELLIYVASSLQSGVPSRFSGSGSGTDFTLTISSLQPEDFATYYCQQSYSTLISFGQGTKLEITRTVAAPSVFIFPPSDEQLKSGTASVVCLLNNFYPREAKVQWKVDNALQSGNSQESVTEQDSKDSTYSLSSTLTLSKADYEKHKVYACEVTHQGLSSPVTKSFNRGEC
peptide: HSQGTFTSDYSKYLDEKRAREFVEWLLKS
chain: GGGGSGGGGSPAPAPAPAPAPASGG
modifications: N-terminus conjugated to heavy-chain Cys; d-Ser2; K28 side chain amide-linked to linker C-terminus; C276 conjugated to linker
hGLP-1R EC50 (pM) [4]: 289 pM | hGCGR EC50 (pM) [3]: 127 pM
